The test system of this series is human platelets. Put plainly: Platelet adhesion assay (pNPP test). In kind it is cell-based. The following applies: human citrated PRP 45 min at 37° C.; PU = Carbothane PC3585A; PPG 468 and 728; fibrinogen-coated wells positive control; FIG. 10. As to the method: • Blood collection tubes: sodium citrate Vacutainer tubes (3.2% citrate, BD Biosciences) • Non-binding 24-well and 96-well plates for suspension culture (polystyrene, Greiner Bio-One) • Spectrophotometer Spectra max PLUS 384 (Molecular Devices) • Human Fibrinogen ref 341576 (Calbiochem) • 2×pNPP buffer (0.1M citrate buffer pH5.4, 10 mM p-nitrophenylphosphate, 2% Triton X-100)
Platelet adhesion on surfaces is analysed by using the p-NitroPhenil Phosphate (pNPP) test. Values obtained with this test are directly proportional to the number of platelets adhering to the surface. The pNPP test measures the levels of alkaline and acid phosphatases released upon platelet lysis. The hydrolysis of pNPP, a substrate of these phosphatases, produces p-nitrophenol, which has a maximal absorbance at 405 nm and is proportional to the amount of platelets bound to the surface. • 1. […] 100 μl is transferred in a 96-well plate before measuring the absorbance at 405 nm in a spectrophotometer. • 10. Background readings from the PPP incubation is subtracted from the PRP reads. • 11. Numbers of platelets are determined from a calibration curve performed with increasing platelet densities. e. […]
Platelet adhesion was analysed by using the p-NitroPhenil Phosphate (pNPP) assay as described in the protocol of testing of example 10 at point b

Turning to fibrinogen, the human platelet adhesion entry is recorded as “adhesion was observed”.

Source of the values: US20240139371A1, “NEW ANTIMICROBIAL AND ANTITHROMBOGENIC MEDICAL DEVICE” (UNIVERSITÉ DE LIÈGE, priority 2021, published 2024).
